According to the supplement of paper PMC12042874:
± gives the uncertainty stated by the source.

Assay: amyloid nucleation score (Sup35N fusion, yeast selection) (log enrichment); library NNK3; higher = more nucleation; inactive = no reads after selection
Outline: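 The nucleation score is the DiMSum log enrichment of output over input reads, centred on the mode score of non-aggregating sequences. Only sequences with 100 or more input reads were scored, using Illumina sequencing of input and output plasmid inserts. Psi-negative yeast expressing Sup35N fused to peptides of 20 random codons were induced 24 hours with 100 μM copper sulfate and grown 7 days at 30°C on medium lacking adenine and uracil.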

Substance	amyloid nucleation score
DMVLSEPFFFGLCFLDFWIF	inactive
DMYVLLMRTQSLGMPLIGIS	inactive
DNATARLQTRNEWSMR	inactive
DNCCKLARVLAWFVFNRLNR	inactive
DNFRVDLVNRLLFYRISHAA	inactive
DNLWRVRLRCKAFSLYVLNR	inactive
DNMSKTSFKLTNCRQCIM	inactive
DNSGVSVQLRKVSESGSA	inactive
DNVNYPPVSYQTAG	inactive
DPWDPYFNLRVSYPFKYYLS	inactive
DPYAGLDNLTRIWASKPSKY	inactive
DQCVLRLPFVIRGSHVSGRK	inactive
DQDKLFSEIRAMKFCCSFPP	inactive
DQHFCKSEREGTRYWLRLTI	inactive
DRDGQPAWHLS	inactive
DRHCLSL	0.582 ± 0.17
DRHSRCQ	inactive
DRIAHF	inactive
DRLRYNLWS	inactive
DRMKATVQLDFG	inactive
DRSDSMYPINMREESREFTF	inactive
DRSLMRS	inactive
DRVPSDTRCYKYGLLLLWYQ	inactive
DSCKIYGG	inactive

Substance	amyloid nucleation score
DSDDNVRKNFAS	inactive
DSFGLFCYTYLWCLWQANDK	2.05 ± 0.097
DSFLSGSEELSVSDCCCIAF	inactive
DSFRDRGCQQKIEIF	inactive
DSFVLSTTFLSSGTSAACLG	-1.32 ± 2.5
DSGCLAMF	inactive
DSGKC	-0.165 ± 0.33
DSLAVFNNVRRSMTVSRSAA	-0.89 ± 1.3
DSMVCSHCWLFDEGSYVYGQ	inactive
DSSDVVSVLVLSEMCAALVT	inactive
DSSRTVGCLSCFYFAIGFWI	0.681 ± 0.34
DSTSLKIGRNAMSHHKSNPC	1.09 ± 0.11
DTGFCYKFNYIPVDVIICIC	1.32 ± 0.12
DTISGGEWDNEVRPYRILLL	inactive
DTYGVVCEVYAILWMNRPLR	inactive
DVEFGLSKLCYHRVCYVTEM	-0.113 ± 0.66
DVFDYVSTVVTNYW	inactive
DVFSDSQVVENRV	inactive
DVLTVMSQLVVMKTL	inactive
DVMRGIKYVRRVNAQLTGSS	inactive
DVMRVWFTEYSMSTTVGMAV	inactive
DVMTKDQ	inactive
DVNIRSSGDNTIAFKYYTMK	0.14 ± 0.38
DVSLVGSVMRIELLEMCVSR	inactive

Substance	amyloid nucleation score
DVSRVIA	inactive
DWCVSSEMSVTNALQATKFA	inactive
DWEDCVV	inactive
DWGTASSSTVGFEQSSDKVF	inactive
DWIKFHVTDW	inactive
DWNRLFRVD	inactive
DWNYNTLQLSSPVGAGLTKN	inactive
DYALC	inactive
DYALI	inactive
DYATESFTVITLLGILLDRG	inactive
DYHLQLKMLRPW	inactive
DYSIAVGYWSFHVN	inactive
DYVNRCI	inactive
EAARTDLSILFISWMLLGKR	inactive
EATPSSIQAQ	inactive
ECADLWARLYHFF	inactive
ECCGDLGAVWQVVRNCGKVL	inactive
ECCQSSSVITNFSSFVKGGA	inactive
ECWKVGKGLRSE	inactive
EDAFWYYVEWPYKWLQGGHS	inactive
EDSMRYCH	inactive
EEDKLFCGVMWQFG	inactive
EEFSGNLCDFRLQPRSCCEN	inactive
EEPNG	inactive

Substance	amyloid nucleation score
EFCIRRIM	inactive
EFFHNYVINMERYNCVLVRM	inactive
EFGDFVDKASMLNIWDGIVG	inactive
EFMKGFAWISMFNLRSVLNS	inactive
EFMSSVGIYMEIDCTLGVCD	inactive
EFVEAYFSNGLSRLPLTHGM	inactive
EGETTEVLTLVVWRKVINNS	inactive
EGHLIHEYTQTRFVLEVSVK	inactive
EGNYAYAVVSHAHFEV	inactive
EGRRIAGNARDRDHDLQVGR	inactive
EGRRPKYIGNESRYNMYHPY	inactive
EHIEIRSSFEVSPHTPNPAS	inactive
EHNYSTASITSTLSTPNRAI	inactive
EHVKRVRIWNSVNLVIEYMA	0.635 ± 0.19
EIFGSISG	inactive
EIICLSLLCS	2.18 ± 0.053
EIIFSSLSIPLYMLEGI	inactive
EILISNCEVDRRLYRGGN	-0.618 ± 0.98
EISLPLFFATLGYFFWIAMR	inactive
EITLYEQGNNRSLVGPERKS	inactive
EKLCAHCSCPKVGVELFGCV	inactive
EKMDLPRAYGDIRTPKEVVR	0.788 ± 0.12
EKRPNPVSICLRWIKEKAT	inactive
ELDMLRYEVMVCNHDDGLCE	inactive

Substance	amyloid nucleation score
ELFKEVCEGEFRAS	inactive
ELLFIDGWKST	inactive
ELLLMCIDDVSMRFITPLEY	inactive
ELRLMGFRGALDACLSLHPI	inactive
ELSTMIKSSCPPLIDRWLFP	inactive
EMRKAIRRL	inactive
EMRSFVGNSCI	-0.613 ± 1.5
EMVITWCLRMLSQAMLGGYS	inactive
EMYGWINMIQWNLLCVSEII	inactive
EPKLDNV	inactive
EQLFD	inactive
EQTLGYNLIRAWLSKCCWMT	inactive
ERELGQRLSCTGNSTVWSYE	inactive
ERFSFVLVNGVRYFRSNLRW	inactive
ERLFRFENEDLVIFIYCSIL	inactive
ERLGVL	inactive
ERMRLNARFSTHLE	inactive
ERRASLGYNHIL	inactive
ESCGRSQHPKEAKELESGAG	inactive
ESDGCNNQFRHWSHCRSKNP	inactive
ESDITICS	inactive
ESFLFFMFIFASCTT	0.536 ± 0.33
